In paper PMC6643271 (Biochemistry, 2018):

Experiments:
Details in all cases: 10 mM ATP, 14 mM MgCl2, 100 mM KCl, pH 8.0, 25 °C
[1] = molecular target: Cj1418 (L-glutamine kinase) (Campylobacter jejuni, UniProt Q0P8J6)
NNC(=O)CC[C@H](N)C(=O)O = test: purified protein
N[C@@H](CCC(=O)NO)C(=O)O = test: purified protein
NC(=O)CC[C@@H](N)C(=O)O = test: purified protein

Sequence of Cj1418 (L-glutamine kinase) (Q0P8J6 whole entry): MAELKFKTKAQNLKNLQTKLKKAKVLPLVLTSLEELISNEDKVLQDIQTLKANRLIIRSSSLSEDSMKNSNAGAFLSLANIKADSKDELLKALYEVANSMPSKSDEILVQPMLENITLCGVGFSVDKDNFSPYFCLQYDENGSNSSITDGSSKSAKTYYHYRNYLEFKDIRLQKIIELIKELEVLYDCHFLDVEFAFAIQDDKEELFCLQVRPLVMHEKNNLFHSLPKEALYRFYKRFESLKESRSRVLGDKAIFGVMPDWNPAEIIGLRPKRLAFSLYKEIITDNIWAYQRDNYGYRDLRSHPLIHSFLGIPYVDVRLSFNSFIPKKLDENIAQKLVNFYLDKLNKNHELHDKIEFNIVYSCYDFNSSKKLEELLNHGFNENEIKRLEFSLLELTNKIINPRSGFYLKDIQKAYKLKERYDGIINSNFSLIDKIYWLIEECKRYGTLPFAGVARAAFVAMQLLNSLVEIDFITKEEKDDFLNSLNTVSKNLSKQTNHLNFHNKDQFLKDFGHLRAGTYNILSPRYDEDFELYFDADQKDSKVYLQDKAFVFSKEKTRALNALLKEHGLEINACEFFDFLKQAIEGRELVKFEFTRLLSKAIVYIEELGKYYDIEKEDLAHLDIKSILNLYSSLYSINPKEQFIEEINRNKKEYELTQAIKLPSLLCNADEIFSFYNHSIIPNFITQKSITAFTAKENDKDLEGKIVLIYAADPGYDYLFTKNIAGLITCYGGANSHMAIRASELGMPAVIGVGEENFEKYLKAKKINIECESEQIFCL

## NC(=O)CC[C@H](N)C(=O)O [compound 1, L-glutamine]
[1]
  Km: 640 ± 60 µM

## Cj1418 (L-glutamine kinase) (Campylobacter jejuni subsp. jejuni NCTC 11168 = ATCC 700819)
NNC(=O)CC[C@H](N)C(=O)O
  Km: 17200 ± 3800 µM
  kcat: 0.41 ± 0.05 s⁻¹
  kcat/Km: 24 ± 6 M⁻¹ s⁻¹
N[C@@H](CCC(=O)NO)C(=O)O
  Km: 1500 ± 400 µM
  kcat: 2.1 ± 0.2 s⁻¹
  kcat/Km: 1400 ± 360 M⁻¹ s⁻¹
NC(=O)CC[C@@H](N)C(=O)O
  Km: 10500 ± 1800 µM
  kcat: 1.5 ± 0.1 s⁻¹
  kcat/Km: 140 ± 30 M⁻¹ s⁻¹
